Laboratory results reported in PMC9482650, “Quantitative fragmentomics allow affinity mapping of interactomes” (Nature Communications, 2022).
Residue numbers refer to the chain shown, from its start.

T1: APBA1_2, Q02410
T1 sequence (Q02410 742-832, limits assumed, looked up): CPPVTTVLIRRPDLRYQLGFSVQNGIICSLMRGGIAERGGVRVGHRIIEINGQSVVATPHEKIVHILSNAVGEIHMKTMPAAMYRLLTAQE

T2: GRIP1_5, Q9Y3R0
T2 sequence (Q9Y3R0 568-668, limits assumed, looked up): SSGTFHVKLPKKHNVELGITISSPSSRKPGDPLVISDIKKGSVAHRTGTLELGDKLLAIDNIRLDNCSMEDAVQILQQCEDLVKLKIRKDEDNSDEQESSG

T3: LIN7A, O14910
T3 sequence (O14910 103-200, limits assumed, looked up): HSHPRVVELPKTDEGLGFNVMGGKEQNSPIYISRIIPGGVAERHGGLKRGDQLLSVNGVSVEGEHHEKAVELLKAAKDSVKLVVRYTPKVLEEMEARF

T4: LIN7C, Q9NUP9
T4 sequence (Q9NUP9 88-185, limits assumed, looked up): T3 sequence (O14910 103-200, limits assumed, looked up) with D13E, V20I, V40I, E42D, K77Q, D78G, S79K, A96S

T5: PARD3B_1, Q8TEW8
T5 sequence (Q8TEW8 196-299, limits assumed, looked up): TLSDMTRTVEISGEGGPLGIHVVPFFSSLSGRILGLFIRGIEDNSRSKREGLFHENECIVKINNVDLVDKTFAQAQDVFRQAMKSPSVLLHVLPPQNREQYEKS

T6: RADIL, Q96JH8
T6 sequence (Q96JH8 971-1071, limits assumed, looked up): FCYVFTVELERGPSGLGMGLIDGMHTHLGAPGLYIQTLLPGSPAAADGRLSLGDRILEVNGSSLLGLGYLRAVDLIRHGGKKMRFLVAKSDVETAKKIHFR

T7: SHANK1, Q9Y566
T7 sequence (Q9Y566 658-767, limits assumed, looked up): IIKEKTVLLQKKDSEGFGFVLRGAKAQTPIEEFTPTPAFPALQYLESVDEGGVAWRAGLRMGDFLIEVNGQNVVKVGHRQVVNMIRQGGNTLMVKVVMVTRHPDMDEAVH

T8: SYNJ2BP, P57105
T8 sequence (P57105 8-110, limits assumed, looked up): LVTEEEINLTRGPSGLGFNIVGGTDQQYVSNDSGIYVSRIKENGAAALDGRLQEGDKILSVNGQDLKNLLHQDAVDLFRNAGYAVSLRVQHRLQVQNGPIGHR

T9: TJP3_3, O95049
T9 sequence (O95049 375-456, limits assumed, looked up): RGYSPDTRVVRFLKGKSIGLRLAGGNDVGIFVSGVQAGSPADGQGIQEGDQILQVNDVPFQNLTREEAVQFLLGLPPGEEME


Target: AHNAK1, Q09666
Experiment: holdup assay
Set-up: key: below the threshold = too weak to quantify, mostly under pKd 3.1 to 4
Conditions: plain residues with an end cap or a label only (N-terminal biotin on a linker: ado-ado)

Sequence of AHNAK1, Q09666 (Q09666 4-100): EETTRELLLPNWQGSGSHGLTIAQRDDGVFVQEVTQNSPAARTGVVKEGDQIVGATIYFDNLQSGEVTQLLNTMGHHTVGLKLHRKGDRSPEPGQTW

| pKd | Binder |
| --- | --- |
| below the threshold | KSRVAFFEEL [NF2, P35240;P35240-1] |
| below the threshold | KRPEMTSSSV [MUC3A, MUC3B, Q02505;Q9H195] |

Target: T1, APBA1_2, Q02410
Experiment: holdup assay
Set-up: key: below the threshold = too weak to quantify, mostly under pKd 3.1 to 4
Conditions: plain residues with an end cap or a label only (N-terminal biotin on a linker: ado-ado)

| pKd | Binder |
| --- | --- |
| 1.83 | KRPEMTSSSV [MUC3A, MUC3B, Q02505;Q9H195] |

Target: DLG1_1, Q12959
Experiment: holdup assay
Set-up: key: below the threshold = too weak to quantify, mostly under pKd 3.1 to 4
Conditions: plain residues with an end cap or a label only (N-terminal biotin on a linker: ado-ado)

| pKd | Binder |
| --- | --- |
| below the threshold | KSRVAFFEEL [NF2, P35240;P35240-1] |
| 1.76 | KRPEMTSSSV [MUC3A, MUC3B, Q02505;Q9H195] |

Target: DLG2_2, Q15700
Experiment: holdup assay
Set-up: key: below the threshold = too weak to quantify, mostly under pKd 3.1 to 4
Conditions: plain residues with an end cap or a label only (N-terminal biotin on a linker: ado-ado)

Sequence of DLG2_2, Q15700 (Q15700 189-283): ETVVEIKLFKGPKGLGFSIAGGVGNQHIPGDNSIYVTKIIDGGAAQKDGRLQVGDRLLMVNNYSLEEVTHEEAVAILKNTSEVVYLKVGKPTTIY

| pKd | Binder |
| --- | --- |
| 3.54 | KRPEMTSSSV [MUC3A, MUC3B, Q02505;Q9H195] |

Target: DLG4_2, P78352
Experiment: holdup assay
Set-up: key: below the threshold = too weak to quantify, mostly under pKd 3.1 to 4
Conditions: plain residues with an end cap or a label only (N-terminal biotin on a linker: ado-ado)

Sequence of DLG4_2, P78352 (P78352 155-259): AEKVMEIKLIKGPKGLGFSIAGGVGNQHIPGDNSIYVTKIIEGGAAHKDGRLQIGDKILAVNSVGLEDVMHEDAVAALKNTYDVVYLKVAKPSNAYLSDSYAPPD

| pKd | Binder |
| --- | --- |
| 4.15 | KRPEMTSSSV [MUC3A, MUC3B, Q02505;Q9H195] |

Target: GORASP1, Q9BQQ3
Experiment: holdup assay
Set-up: key: below the threshold = too weak to quantify, mostly under pKd 3.1 to 4
Conditions: plain residues with an end cap or a label only (N-terminal biotin on a linker: ado-ado)

Sequence of GORASP1, Q9BQQ3 (Q9BQQ3 1-208): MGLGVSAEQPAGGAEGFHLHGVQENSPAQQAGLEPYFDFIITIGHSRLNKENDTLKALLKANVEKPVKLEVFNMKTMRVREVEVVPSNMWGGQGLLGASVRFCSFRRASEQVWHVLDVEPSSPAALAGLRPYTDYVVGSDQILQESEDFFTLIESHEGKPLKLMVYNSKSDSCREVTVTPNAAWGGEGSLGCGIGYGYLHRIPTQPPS

| pKd | Binder |
| --- | --- |
| 4.06 | KSRVAFFEEL [NF2, P35240;P35240-1] |
| below the threshold | KRPEMTSSSV [MUC3A, MUC3B, Q02505;Q9H195] |

Target: T2, GRIP1_5, Q9Y3R0
Experiment: holdup assay
Set-up: key: below the threshold = too weak to quantify, mostly under pKd 3.1 to 4
Conditions: plain residues with an end cap or a label only (N-terminal biotin on a linker: ado-ado)

| pKd | Binder |
| --- | --- |
| below the threshold | KRPEMTSSSV [MUC3A, MUC3B, Q02505;Q9H195] |

Target: GRIP2_3, Q9C0E4
Experiment: holdup assay
Set-up: key: below the threshold = too weak to quantify, mostly under pKd 3.1 to 4
Conditions: plain residues with an end cap or a label only (N-terminal biotin on a linker: ado-ado)

Sequence of GRIP2_3, Q9C0E4 (Q9C0E4 238-339): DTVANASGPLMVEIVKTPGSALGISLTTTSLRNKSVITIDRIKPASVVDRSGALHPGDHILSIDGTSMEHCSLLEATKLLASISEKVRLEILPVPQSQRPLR

| pKd | Binder |
| --- | --- |
| below the threshold | KSRVAFFEEL [NF2, P35240;P35240-1] |
| below the threshold | KRPEMTSSSV [MUC3A, MUC3B, Q02505;Q9H195] |

Target: HTRA2, O43464
Experiment: holdup assay
Set-up: key: below the threshold = too weak to quantify, mostly under pKd 3.1 to 4
Conditions: plain residues with an end cap or a label only (N-terminal biotin on a linker: ado-ado)

Sequence of HTRA2, O43464 (O43464 355-458): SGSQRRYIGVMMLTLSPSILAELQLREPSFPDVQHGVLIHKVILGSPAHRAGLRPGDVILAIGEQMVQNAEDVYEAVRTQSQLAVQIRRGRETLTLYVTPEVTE

| pKd | Binder |
| --- | --- |
| below the threshold | KRPEMTSSSV [MUC3A, MUC3B, Q02505;Q9H195] |

Target: Inadl_1, Q8NI35
Experiment: holdup assay
Set-up: key: below the threshold = too weak to quantify, mostly under pKd 3.1 to 4
Conditions: plain residues with an end cap or a label only (N-terminal biotin on a linker: ado-ado)

Sequence of Inadl_1, Q8NI35 (Q8NI35 113-229): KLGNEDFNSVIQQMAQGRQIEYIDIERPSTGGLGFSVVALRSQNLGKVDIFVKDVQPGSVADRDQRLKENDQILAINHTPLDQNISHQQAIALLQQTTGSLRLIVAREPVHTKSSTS

| pKd | Binder |
| --- | --- |
| below the threshold | KSRVAFFEEL [NF2, P35240;P35240-1] |
| below the threshold | KRPEMTSSSV [MUC3A, MUC3B, Q02505;Q9H195] |

Target: Inadl_2, Q8NI35
Experiment: holdup assay
Set-up: key: below the threshold = too weak to quantify, mostly under pKd 3.1 to 4
Conditions: plain residues with an end cap or a label only (N-terminal biotin on a linker: ado-ado)

Sequence of Inadl_2, Q8NI35 (Q8NI35 238-335): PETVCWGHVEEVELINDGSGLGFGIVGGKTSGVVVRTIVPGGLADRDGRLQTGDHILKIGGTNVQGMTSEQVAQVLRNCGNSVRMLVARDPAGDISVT

| pKd | Binder |
| --- | --- |
| below the threshold | KSRVAFFEEL [NF2, P35240;P35240-1] |
| below the threshold | KRPEMTSSSV [MUC3A, MUC3B, Q02505;Q9H195] |

Target: Inadl_9, Q8NI35
Experiment: holdup assay
Set-up: key: below the threshold = too weak to quantify, mostly under pKd 3.1 to 4
Conditions: plain residues with an end cap or a label only (N-terminal biotin on a linker: ado-ado)

Sequence of Inadl_9, Q8NI35 (Q8NI35 1530-1615): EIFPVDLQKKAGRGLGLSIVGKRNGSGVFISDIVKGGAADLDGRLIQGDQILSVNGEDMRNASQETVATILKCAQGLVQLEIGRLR

| pKd | Binder |
| --- | --- |
| below the threshold | KSRVAFFEEL [NF2, P35240;P35240-1] |
| 3.6 | KRPEMTSSSV [MUC3A, MUC3B, Q02505;Q9H195] |

Target: T3, LIN7A, O14910
Experiment: holdup assay
Set-up: key: below the threshold = too weak to quantify, mostly under pKd 3.1 to 4
Conditions: plain residues with an end cap or a label only (N-terminal biotin on a linker: ado-ado)

| pKd | Binder |
| --- | --- |
| below the threshold | KRPEMTSSSV [MUC3A, MUC3B, Q02505;Q9H195] |

Target: T4, LIN7C, Q9NUP9
Experiment: holdup assay
Set-up: key: below the threshold = too weak to quantify, mostly under pKd 3.1 to 4
Conditions: plain residues with an end cap or a label only (N-terminal biotin on a linker: ado-ado)

| pKd | Binder |
| --- | --- |
| below the threshold | KSRVAFFEEL [NF2, P35240;P35240-1] |

Target: MAGI1_1, Q96QZ7
Experiment: holdup assay
Set-up: key: below the threshold = too weak to quantify, mostly under pKd 3.1 to 4
Conditions: plain residues with an end cap or a label only (N-terminal biotin on a linker: ado-ado)

Sequence of MAGI1_1, Q96QZ7 (Q96QZ7 1-106): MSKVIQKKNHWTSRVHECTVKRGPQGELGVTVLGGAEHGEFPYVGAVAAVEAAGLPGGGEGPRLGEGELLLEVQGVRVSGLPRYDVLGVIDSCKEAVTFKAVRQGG

| pKd | Binder |
| --- | --- |
| below the threshold | KSRVAFFEEL [NF2, P35240;P35240-1] |
| below the threshold | KRPEMTSSSV [MUC3A, MUC3B, Q02505;Q9H195] |

Target: MAGI2_5, Q86UL8
Experiment: holdup assay
Set-up: key: below the threshold = too weak to quantify, mostly under pKd 3.1 to 4
Conditions: plain residues with an end cap or a label only (N-terminal biotin on a linker: ado-ado)

Sequence of MAGI2_5, Q86UL8 (Q86UL8 915-1017): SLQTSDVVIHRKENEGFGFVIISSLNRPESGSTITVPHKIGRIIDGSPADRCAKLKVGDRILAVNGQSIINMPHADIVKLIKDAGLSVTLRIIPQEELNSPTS

| pKd | Binder |
| --- | --- |
| below the threshold | KSRVAFFEEL [NF2, P35240;P35240-1] |

Target: MAST1, Q9Y2H9
Experiment: holdup assay
Set-up: key: below the threshold = too weak to quantify, mostly under pKd 3.1 to 4
Conditions: plain residues with an end cap or a label only (N-terminal biotin on a linker: ado-ado)

Sequence of MAST1, Q9Y2H9 (Q9Y2H9 962-1065): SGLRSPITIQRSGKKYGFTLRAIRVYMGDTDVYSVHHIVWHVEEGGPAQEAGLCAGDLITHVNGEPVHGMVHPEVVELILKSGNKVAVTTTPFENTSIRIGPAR

| pKd | Binder |
| --- | --- |
| 4.37 | KSRVAFFEEL [NF2, P35240;P35240-1] |
| 4.17 | KRPEMTSSSV [MUC3A, MUC3B, Q02505;Q9H195] |

Target: NHERF2_2, Q15599
Experiment: holdup assay
Set-up: key: below the threshold = too weak to quantify, mostly under pKd 3.1 to 4
Conditions: plain residues with an end cap or a label only (N-terminal biotin on a linker: ado-ado)

Sequence of NHERF2_2, Q15599 (Q15599 142-238): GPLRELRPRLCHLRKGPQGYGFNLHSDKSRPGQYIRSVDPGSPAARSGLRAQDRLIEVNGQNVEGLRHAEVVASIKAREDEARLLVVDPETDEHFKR

| pKd | Binder |
| --- | --- |
| below the threshold | KRPEMTSSSV [MUC3A, MUC3B, Q02505;Q9H195] |

Target: T5, PARD3B_1, Q8TEW8
Experiment: holdup assay
Set-up: key: below the threshold = too weak to quantify, mostly under pKd 3.1 to 4
Conditions: plain residues with an end cap or a label only (N-terminal biotin on a linker: ado-ado)

| pKd | Binder |
| --- | --- |
| below the threshold | KRPEMTSSSV [MUC3A, MUC3B, Q02505;Q9H195] |

Target: PARD3_3, Q8TEW0
Experiment: holdup assay
Set-up: key: below the threshold = too weak to quantify, mostly under pKd 3.1 to 4
Conditions: plain residues with an end cap or a label only (N-terminal biotin on a linker: ado-ado)

Sequence of PARD3_3, Q8TEW0 (Q8TEW0 582-685): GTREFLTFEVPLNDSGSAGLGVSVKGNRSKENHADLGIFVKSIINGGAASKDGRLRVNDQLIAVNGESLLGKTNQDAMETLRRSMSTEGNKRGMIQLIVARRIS

| pKd | Binder |
| --- | --- |
| below the threshold | KRPEMTSSSV [MUC3A, MUC3B, Q02505;Q9H195] |

Target: PTPN3, P26045
Experiment: holdup assay
Set-up: key: below the threshold = too weak to quantify, mostly under pKd 3.1 to 4
Conditions: plain residues with an end cap or a label only (N-terminal biotin on a linker: ado-ado)

Sequence of PTPN3, P26045 (P26045 505-587): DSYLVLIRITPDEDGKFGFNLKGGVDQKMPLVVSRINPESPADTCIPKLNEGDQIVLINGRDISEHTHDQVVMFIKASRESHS

| pKd | Binder |
| --- | --- |
| 4.22 | KSRVAFFEEL [NF2, P35240;P35240-1] |

Target: T6, RADIL, Q96JH8
Experiment: holdup assay
Set-up: key: below the threshold = too weak to quantify, mostly under pKd 3.1 to 4
Conditions: plain residues with an end cap or a label only (N-terminal biotin on a linker: ado-ado)

| pKd | Binder |
| --- | --- |
| 4.44 | KSRVAFFEEL [NF2, P35240;P35240-1] |
| below the threshold | KRPEMTSSSV [MUC3A, MUC3B, Q02505;Q9H195] |

Target: T7, SHANK1, Q9Y566
Experiment: holdup assay
Set-up: key: below the threshold = too weak to quantify, mostly under pKd 3.1 to 4
Conditions: plain residues with an end cap or a label only (N-terminal biotin on a linker: ado-ado)

| pKd | Binder |
| --- | --- |
| below the threshold | KSRVAFFEEL [NF2, P35240;P35240-1] |
| 3.92 | KRPEMTSSSV [MUC3A, MUC3B, Q02505;Q9H195] |

Target: T8, SYNJ2BP, P57105
Experiment: holdup assay
Set-up: key: below the threshold = too weak to quantify, mostly under pKd 3.1 to 4
Conditions: plain residues with an end cap or a label only (N-terminal biotin on a linker: ado-ado)

| pKd | Binder |
| --- | --- |
| below the threshold | KSRVAFFEEL [NF2, P35240;P35240-1] |
| 5.02 | KRPEMTSSSV [MUC3A, MUC3B, Q02505;Q9H195] |

Target: T9, TJP3_3, O95049
Experiment: holdup assay
Set-up: key: below the threshold = too weak to quantify, mostly under pKd 3.1 to 4
Conditions: plain residues with an end cap or a label only (N-terminal biotin on a linker: ado-ado)

| pKd | Binder |
| --- | --- |
| below the threshold | KSRVAFFEEL [NF2, P35240;P35240-1] |
| below the threshold | KRPEMTSSSV [MUC3A, MUC3B, Q02505;Q9H195] |
